Measured values published in patent publication WO2001004269A1.

How the values were obtained:
von Willebrand factor [1] = molecular target: von Willebrand factor (UniProt P04275); assay: as above, after thrombin digestion (activated factor VIII) in the absence of antibody; design: unit not given here
von Willebrand factor [2] = molecular target: von Willebrand factor (UniProt P04275); assay: biotinylated recombinant factor VIII complexed to von Willebrand factor, captured on the anti-von Willebrand factor antibody MoAb4H1D7, no thrombin digestion, avidin-peroxidase detection; design: unit not given here

OD450 (OD450 (so in the source)) (von Willebrand factor [1]): 160 | OD450 (OD450 (so in the source)) (von Willebrand factor [2]): 460
Substance: human recombinant factor VIII (from UniProt P00451 20-2351)
